Assay results: patent US20180112002A1 (University of California, published 2018)

B1: CD19 (receptor, human, UniProt P15391 20-556, looked up)
chain: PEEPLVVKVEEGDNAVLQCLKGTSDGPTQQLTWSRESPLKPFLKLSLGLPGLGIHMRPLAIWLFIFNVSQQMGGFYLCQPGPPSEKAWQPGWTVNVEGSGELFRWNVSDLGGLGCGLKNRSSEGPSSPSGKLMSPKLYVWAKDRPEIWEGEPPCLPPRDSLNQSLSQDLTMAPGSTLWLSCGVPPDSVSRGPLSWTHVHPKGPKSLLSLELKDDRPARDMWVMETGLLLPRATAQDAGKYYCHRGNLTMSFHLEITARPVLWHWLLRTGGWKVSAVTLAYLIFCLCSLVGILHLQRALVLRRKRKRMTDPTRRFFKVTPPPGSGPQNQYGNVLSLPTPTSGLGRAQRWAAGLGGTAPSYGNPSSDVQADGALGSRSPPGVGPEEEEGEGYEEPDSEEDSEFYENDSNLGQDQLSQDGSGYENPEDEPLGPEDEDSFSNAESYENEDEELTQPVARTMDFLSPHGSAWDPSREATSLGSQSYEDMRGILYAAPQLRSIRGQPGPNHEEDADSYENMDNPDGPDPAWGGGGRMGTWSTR
notes: whole, on cells; Negative control for co-localization
B2: CD5 (receptor, human, UniProt P06127 25-495, looked up)
chain: RLSWYDPDFQARLTRSNSKCQGQLEVYLKDGWHMVCSQSWGRSSKQWEDPSQASKVCQRLNCGVPLSLGPFLVTYTPQSSIICYGQLGSFSNCSHSRNDMCHSLGLTCLEPQKTTPPTTRPPPTTTPEPTAPPRLQLVAQSGGQHCAGVVEFYSGSLGGTISYEAQDKTQDLENFLCNNLQCGSFLKHLPETEAGRAQDPGEPREHQPLPIQWKIQNSSCTSLEHCFRKIKPQKSGRVLALLCSGFQPKVQSRLVGGSSICEGTVEVRQGAQWAALCDSSSARSSLRWEEVCREQQCGSVNSYRVLDAGDPTSRGLFCPHQKLSQCHELWERNSYCKKVFVTCQDPNPAGLAAGTVASIILALVLLVVLLVVCGPLAYKKLVKKFRQKKQRQWIGPTGMNQNMSFHRNHTATVRSHAENPTASHVDNEYSQPPRNSHLSAYPALEGALHRSSMQPDNSSDSDYDLHGAQRL
notes: as for B1
B3: ARHGEF6 protein (Rho guanine nucleotide exchange factor 6) (other)
chain: MNPEEQIVTWLISLGVLESPKKTICDPEEFLKSSLKNGVVLCKLINRLMPGSVEKFCLDPQTEADCINNINDFLKGCATLQVEIFDPDDLYSGVNFSKVLSTLLAVNKATEDQLSERPCGRSSSLSAANTSQTNPQGAVSSTVSGLQRQSKTVEMTENGSHQLIVKARFNFKQTNEDELSVCKGDIIYVTRVEEGGWWEGTLNGRTGWFPSNYVREIKSSERPLSPKAVKGFETAPLTKNYYTVVLQNILDTEKEYAKELQSLLVTYLRPLQSNNNLSTVEVTSLLGNFEEVCTFQQTLCQALEECSKFPENQHKVGGCLLSLMPHFKSMYLAYCANHPSAVNVLTQHSDELEQFMENQGASSPGILILTTNLSKPFMRLEKYVTLLQELERHMEDTHPDHQDILKAIVAFKTLMGQCQDLRKRKQLELQILSEPIQAWEGEDIKNLGNVIFMSQVMVQYGACEEKEERYLMLFSNVLIMLSASPRMSGFIYQGKIPIAGTVVTRLDEIEGNDCTFEITGNTVERIVVHCNNNQDFQEWLEQLNRLIRGPASCSSLSKTSSSSCSAHSSFSSTGQPRGPLEPPQIIKPWSLSCLRPAPPLRPSAALGYKERMSYILKESSKSPKTMKKFLHKRKTERKPSEEEYVIRKSTAALEEDAQILKVIEAYCTSANFQQGHGSSTRKDSIPQVLLPEEEKLIIEETRSNGQTIMEEKSLVDTVYALKDEVRELKQENKRMKQCLEEELKSRRDLEKLVRRLLKQTDECIRGESSSKTSILP
notes: Endogenous protein of CLL and MEC1 cells

Key:
[1] = target: T1, ROR1 protein (tyrosine-protein kinase transmembrane receptor ROR1) (human, UniProt Q01973 30-937); assay: fluorescence confocal microscopy, CLL cells
T1 construct: Endogenous ROR1 of CLL patients' cells, and full-length ROR1 expressed from a vector in the human CLL line MEC1 (MEC1-ROR1); also called NTRKR1; full-length ROR1
Method: (§1) FIG. 9. Negative control for co-localization analysis by confocal microscopy. CLL cells were stained with anti-CD5-Alexa-647 and anti-CD19-Alexa-488; anti-ROR1-Alexa-647 and anti-CD19-Alexa-488; or anti-CD5-Alexa-647 and anti-ROR2-Alexa-488 for evaluation by confocal microscopy (Scale bar: 2 μm). There is no co-localization between CD5 and CD19, ROR1 and CD19, or CD5 and ROR2.
(§2) However, it was difficult to detect co-localization of ROR1 with ROR2 in cultured CLL cells unless they were treated with exogenous Wnt5a (FIG. 3b).

CD19 = target: B1; assay: fluorescence confocal microscopy, CLL cells
Method: as §1, §2

[2] = target: T2, ROR2 protein (tyrosine-protein kinase transmembrane receptor ROR2) (human, UniProt Q01974 34-943); assay: fluorescence confocal microscopy, CLL cells
T2 construct: Endogenous ROR2 of CLL cells, normal B cells and MEC1 cells; also called NTRKR2
Method: as §1, §2

[3] = target: T2, ROR2 protein (tyrosine-protein kinase …); assay: fluorescence confocal microscopy, Wnt5a-treated CLL cells

T2 sequence (Q01974 34-943 limits assumed): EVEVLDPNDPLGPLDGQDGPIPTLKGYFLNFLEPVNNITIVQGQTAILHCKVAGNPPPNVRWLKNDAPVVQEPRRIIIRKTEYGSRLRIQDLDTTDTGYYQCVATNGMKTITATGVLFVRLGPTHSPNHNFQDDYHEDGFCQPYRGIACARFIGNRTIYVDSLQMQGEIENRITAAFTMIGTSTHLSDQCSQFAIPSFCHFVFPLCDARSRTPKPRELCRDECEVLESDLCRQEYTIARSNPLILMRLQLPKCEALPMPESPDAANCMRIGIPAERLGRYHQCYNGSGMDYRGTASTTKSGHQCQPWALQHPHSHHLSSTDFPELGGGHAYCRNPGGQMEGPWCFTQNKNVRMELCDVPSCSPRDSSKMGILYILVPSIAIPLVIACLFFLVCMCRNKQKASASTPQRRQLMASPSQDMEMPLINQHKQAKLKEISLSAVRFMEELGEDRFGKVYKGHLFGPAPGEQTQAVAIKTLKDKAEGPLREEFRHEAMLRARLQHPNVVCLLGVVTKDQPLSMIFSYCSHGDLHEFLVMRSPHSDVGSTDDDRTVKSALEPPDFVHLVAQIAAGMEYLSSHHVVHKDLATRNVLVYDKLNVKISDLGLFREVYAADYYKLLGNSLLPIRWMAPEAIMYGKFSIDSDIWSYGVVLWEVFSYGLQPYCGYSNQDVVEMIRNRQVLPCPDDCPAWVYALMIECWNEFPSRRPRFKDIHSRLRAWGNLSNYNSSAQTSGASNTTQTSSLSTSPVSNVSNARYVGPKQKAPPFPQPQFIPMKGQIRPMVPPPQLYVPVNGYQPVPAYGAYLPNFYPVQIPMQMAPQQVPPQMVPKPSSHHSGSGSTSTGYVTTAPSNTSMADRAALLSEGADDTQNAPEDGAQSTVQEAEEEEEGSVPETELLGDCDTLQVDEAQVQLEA
T1 sequence (Q01973 30-937 limits assumed): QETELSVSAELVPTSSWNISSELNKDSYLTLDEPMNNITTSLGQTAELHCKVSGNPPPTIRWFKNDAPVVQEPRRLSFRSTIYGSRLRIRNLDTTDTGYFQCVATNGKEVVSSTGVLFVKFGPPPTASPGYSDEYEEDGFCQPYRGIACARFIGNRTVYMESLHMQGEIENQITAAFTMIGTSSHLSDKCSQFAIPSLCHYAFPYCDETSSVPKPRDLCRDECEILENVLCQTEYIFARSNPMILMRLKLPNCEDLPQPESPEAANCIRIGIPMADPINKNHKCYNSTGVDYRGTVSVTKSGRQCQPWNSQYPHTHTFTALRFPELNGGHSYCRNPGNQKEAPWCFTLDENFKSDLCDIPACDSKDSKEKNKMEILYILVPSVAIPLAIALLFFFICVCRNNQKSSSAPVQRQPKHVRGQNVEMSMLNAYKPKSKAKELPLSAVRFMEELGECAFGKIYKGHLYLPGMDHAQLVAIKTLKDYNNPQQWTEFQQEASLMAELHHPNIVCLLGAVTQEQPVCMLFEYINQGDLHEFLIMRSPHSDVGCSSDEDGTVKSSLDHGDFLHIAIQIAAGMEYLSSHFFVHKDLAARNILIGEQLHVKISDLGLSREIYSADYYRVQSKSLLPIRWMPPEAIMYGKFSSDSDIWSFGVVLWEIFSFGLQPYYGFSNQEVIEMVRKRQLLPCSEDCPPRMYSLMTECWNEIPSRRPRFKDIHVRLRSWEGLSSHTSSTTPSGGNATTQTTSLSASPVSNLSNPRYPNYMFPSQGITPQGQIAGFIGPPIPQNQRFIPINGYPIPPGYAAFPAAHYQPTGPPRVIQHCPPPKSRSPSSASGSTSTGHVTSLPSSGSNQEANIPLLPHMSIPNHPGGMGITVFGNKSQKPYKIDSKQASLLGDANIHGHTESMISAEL

B1: no binding [1].

B2: no binding (CD19); no binding [2].

B3: binds [3].
